T1: rhesus monkey CD22-ECD-His protein (rhesus monkey, UniProt H9G1X2 18-686)
T1 construct: extracellular domain; also called monkey CD22 protein
T1 sequence: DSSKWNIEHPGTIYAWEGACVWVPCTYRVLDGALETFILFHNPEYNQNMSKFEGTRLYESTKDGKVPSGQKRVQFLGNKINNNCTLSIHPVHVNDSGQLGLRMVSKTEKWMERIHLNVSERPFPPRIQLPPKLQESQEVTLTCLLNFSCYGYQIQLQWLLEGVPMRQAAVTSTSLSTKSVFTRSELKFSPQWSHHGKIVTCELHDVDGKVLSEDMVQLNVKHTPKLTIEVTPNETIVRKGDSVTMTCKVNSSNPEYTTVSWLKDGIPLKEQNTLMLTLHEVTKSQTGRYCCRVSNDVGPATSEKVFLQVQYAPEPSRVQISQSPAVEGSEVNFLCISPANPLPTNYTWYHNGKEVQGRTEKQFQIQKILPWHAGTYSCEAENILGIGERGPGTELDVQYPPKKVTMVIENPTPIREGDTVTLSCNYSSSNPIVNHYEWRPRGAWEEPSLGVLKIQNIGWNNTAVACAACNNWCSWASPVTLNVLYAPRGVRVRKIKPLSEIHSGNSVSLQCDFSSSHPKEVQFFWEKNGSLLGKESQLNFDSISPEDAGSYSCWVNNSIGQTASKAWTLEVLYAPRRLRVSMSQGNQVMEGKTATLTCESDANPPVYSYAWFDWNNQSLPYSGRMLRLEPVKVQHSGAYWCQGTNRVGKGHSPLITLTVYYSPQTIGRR

T2: human CD22 domain1-4-His (human, UniProt P20273 20-425)
T2 construct: also called hCD22 domain1-4-His; not shown: His tag
T2 sequence: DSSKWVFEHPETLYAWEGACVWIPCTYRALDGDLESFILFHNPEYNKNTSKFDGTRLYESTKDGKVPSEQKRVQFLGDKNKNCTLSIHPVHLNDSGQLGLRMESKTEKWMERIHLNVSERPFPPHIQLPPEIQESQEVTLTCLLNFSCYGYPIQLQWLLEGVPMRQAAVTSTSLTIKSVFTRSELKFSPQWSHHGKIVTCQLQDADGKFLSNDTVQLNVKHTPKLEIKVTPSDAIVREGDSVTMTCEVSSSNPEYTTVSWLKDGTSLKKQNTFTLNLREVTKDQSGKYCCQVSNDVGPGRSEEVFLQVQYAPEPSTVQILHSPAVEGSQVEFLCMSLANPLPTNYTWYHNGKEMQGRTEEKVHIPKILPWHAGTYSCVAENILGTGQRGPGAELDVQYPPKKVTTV

T3: human CD22-ECD-His protein (human, UniProt P20273 20-687)
T3 construct: Recombinant, from HEK293E cells; also called hCD22-ECD-His; human CD22-His protein; not shown: His tag
T3 sequence: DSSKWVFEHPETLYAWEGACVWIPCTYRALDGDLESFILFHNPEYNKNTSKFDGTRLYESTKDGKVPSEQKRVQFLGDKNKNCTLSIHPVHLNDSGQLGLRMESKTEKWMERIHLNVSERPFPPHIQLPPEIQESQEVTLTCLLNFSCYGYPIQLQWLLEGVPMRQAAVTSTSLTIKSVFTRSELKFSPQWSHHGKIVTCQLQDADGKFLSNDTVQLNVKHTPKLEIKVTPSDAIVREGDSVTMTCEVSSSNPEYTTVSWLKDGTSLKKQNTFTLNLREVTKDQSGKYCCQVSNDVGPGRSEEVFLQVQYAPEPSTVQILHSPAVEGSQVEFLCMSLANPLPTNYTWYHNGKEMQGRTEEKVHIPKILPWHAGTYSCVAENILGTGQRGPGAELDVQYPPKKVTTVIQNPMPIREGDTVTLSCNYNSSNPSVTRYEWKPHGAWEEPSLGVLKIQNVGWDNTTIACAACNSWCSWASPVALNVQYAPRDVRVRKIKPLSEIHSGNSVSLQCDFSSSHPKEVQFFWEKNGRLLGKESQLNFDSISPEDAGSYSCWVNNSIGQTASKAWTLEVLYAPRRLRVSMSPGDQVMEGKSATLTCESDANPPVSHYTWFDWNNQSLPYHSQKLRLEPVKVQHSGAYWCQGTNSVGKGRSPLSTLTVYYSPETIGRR

B1: F1.105.11 (antibody, human IgG1, kappa, V domains shown)
VH: EVQLQQSGPVLVKPGASVKMSCKASGYTFSDYFMNWVKQSHGKSLEWIGIINSYSGGTSYNQKFKGKATLTVDKSSSTAYMELNSLTSEDSAVYYCARWMDYWGQGTSVTVSS
VL: DVQITQSPSYLAASPGETITINCRTSESISKHLAWYQEKPGKTNKLLIYSGSTLQSGIPSRFSGSGSGTDFTLTISSLEPEDFAMYYCQQHNEYPWTFGGGTKLEIKR
notes: Chimeric IgG1 kappa
B2: F1.200.11 (antibody, human IgG1, kappa, V domains shown)
VH: QNQLVQSGPELKKPGETVKISCKASGYTFTTAGMQWVQKMPGKGFKWIGWINTLSGEPKYAEDFKGRFAFSLETSATTAYLQISNLKNEDTATYFCARAYYSNLYWYFDVWGTGTTVTVSS
VL: DIVMTQSQKFMSTTVGDRVTITCKASQNVVTAVAWYQQKPGQSPKVLIYSASNRYSGVPDRFTGSGSGTDFTLTISNMHSEDLANYFCHQYSSYPFTFGSGTKLEIKR
notes: Chimeric IgG1 kappa
B3: F2.151.13 (antibody, human IgG1, lambda, V domains shown)
VH: QVHLQQPGTELMKPGASVKLSCKATGYTFRDYWLEWVKQRPGHGLEWIGEILPGSGNAYYNEKFKGKATFTADTSSNTAYMQLSSLTTEDSAIYYCARVYSNWYFDAWGKGTTVTVSS
VL: QAVVTQESALTTSPGETVTLTCRSSTGAVTTSNYANWVQEKPDHLFTGLIGGTNNQAPGVPARFSGSLIGDKAALTISGAQTEDEAIYFCALWFSNHWVFGGGTKLTVLG
notes: Chimeric IgG1 lambda
B4: F1.192.1 (antibody, human IgG1, kappa, V domains shown)
VH: AVQLQQSGVELVRPGASVKLSCTGSDFNIKEDYIHWVKQRPEQGLEWIGWIDPENGDTEYASKFQGKATITADTSSNTAYLQLSSLTSEDTAVYYCATYGSLDYWGQGTTLTVSS
VL: DIKMTQSPSSMYAFLGERVTITCKASQGINSFLTWFQQKPGKSPKTLIYRANRLVDGVPSRFSGSGSGQDYSLTISSLEYEDVGIYYCLQYDEFPRTFGGGTKLEIKR
notes: Chimeric IgG1 kappa

One assay deals with T1, rhesus monkey CD22-ECD-His protein. The assay is described as follows: SPR (Biacore), antibody captured on Protein A chip, rhesus CD22 in solution. (Surface plasmon resonance follows binding to a sensor surface in real time, without labels.)
As for B1, the dissociation constant Kd (in general, a measure of binding affinity in units of concentration) amounted to 17.3 nM; the dissociation rate constant (koff) (usually the rate constant with which the complex falls apart) amounted to 0.000448 s⁻¹; the on-rate constant (kon) (in general, a measure of how fast the partners come together) worked out at 25900 M⁻¹ s⁻¹.

Consider B2, for which the equilibrium dissociation constant (Kd) turned out to be 44.2 nM, the off-rate (koff) amounted to 0.000596 s⁻¹ and the association rate constant (kon) was 13500 M⁻¹ s⁻¹.

B3 came in with an equilibrium dissociation constant (Kd) of 27.5 nM, a koff of 0.000528 s⁻¹ and an association rate constant (kon) of 19200 M⁻¹ s⁻¹.

In turn, B4 showed a Kd of 23.1 nM, an off-rate constant (koff) of 0.0016 s⁻¹ and a kon of 69200 M⁻¹ s⁻¹.

The target in the next assay is T2, human CD22 domain1-4-His. The assay is described as follows: ELISA, plate coated with human CD22 domain1-4-His.
For B1, the binding result is “no binding”.

With B2, the binding result is “no binding”.

B3: the binding result was “no binding”.

For B4, the binding result is recorded as “no binding”.

The next assay concerns the target T3, human CD22-ECD-His protein. The assay can be described thus: SPR (Biacore), antibody captured on Protein A chip, CD22-ECD-His in solution. In short, it runs like this:
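Antibody captured on Protein A chip, then human CD22-ECD-His injected for 240 s at 30 μL/min, 5 concentrations from 200 nM (1:1 dilution), dissociation up to 600 s, in HBS-EP+ at 25° C. Responses double-referenced; apparent KD and kinetic constants fitted to a Langmuir 1:1 model.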
Turning to B1, the dissociation constant Kd came out at 0.514 nM, the koff is 0.000154 s⁻¹ and the kon was 299000 M⁻¹ s⁻¹.

On to B2, for which the Kd worked out at 102 nM, the dissociation rate constant (koff) was found to be 0.00102 s⁻¹ and the association rate constant (kon) is 9980 M⁻¹ s⁻¹.

B3: the Kd amounted to 22.7 nM, the koff amounted to 0.000533 s⁻¹ and the on-rate (kon) was 23500 M⁻¹ s⁻¹.

In turn, B4 displayed a Kd of 1.08 nM, a koff of 0.000244 s⁻¹ and a kon of 225000 M⁻¹ s⁻¹.

The values are drawn from US20240084003A1 (SIMCERE ZAIMING PHARMACEUTICAL, published 2024).
